In experiment [1] the target is T1, LgBiT-CXCR4 (Homo sapiens, UniProt P61073).
T1 construct: GSSG linker and TEV recognition site (EDLYFQS), between LgBiT and CXCR4 (N); expressed in transfected cells; whole cells in A1-A4, isolated membranes in A9/A10
The experiment can be described thus: NanoBiT saturation binding (complemented luminescence) in HEK293 cells stably expressing LgBiT-CXCR4. To be noted: fixed concentration: 100 nM CXCL12, 10 μM AMD3100 or 10 μM IT1t (Figure 3E). As for the experimental part:
Saturation binding with VUN400-HiBiT was performed on HEK 293 cells stably expressing the LgBiT-CXCR4 receptor. Cells were plated at 30,000 cells/well in white 96-well plates previously coated with poly-D-lysine (10 μg/ml in PBS) in 100 μl complete media (DMEM with 10% FCS). After 24 hours, the media was removed and replaced with 100 μl HBSS containing VUN400-HiBiT within the range of 4-500 nM. Where used, CXCL12, AMD3100 or IT1t were also added at this point. The plate was incubated for two hours at 37°C. Furimazine (1:400 final concentration) was added to each well and the plate was incubated for a further 15 minutes at 37°C. Luminescence was measured using the PHERAstar FS plate reader.
Saturation binding curves of VUN400-HiBiT were fitted using the following equation: Specificbinding=Bmax×[B]/[B]+KD where Bmax is the maximal specific binding, [B] is the concentration of VUN400-HiBiT, and KD is the equilibrium dissociation constant (nM).

For experiment [2], the target named is T1, LgBiT-CXCR4. The experiment can be described thus: NanoBiT nanobody displacement binding assay, whole HEK293 cells expressing LgBiT-CXCR4. The procedure:
(§1) Full nanobody displacement assays were performed in HEK293 cells stably expressing either the LgBiT-CXCR4 or SNAP-CXCR4 constructs. Cells (30,000 per well) were plated in white 96-well poly-D-lysine coated plates as described above. After 24 hours, media was removed and replaced with 100 μl HBSS. Increasing concentrations of displacing ligands were added to the cells. […] The cells were incubated at 37°C for 2 and a half hours in total. […] Furimazine (1:400 final concentration) was added to each well and the plate was incubated for a further 15 minutes at 37°C. Luminescence was measured using the PHERAstar FS plate reader.

The test system of experiment [3] is T2, endogenous, untagged CXCR4.
T2 construct: these cells express high levels of CXCR4 endogenously; host or cells: Jurkat T cells (clone E6-1)
Description: Nanobody displacement assay in Jurkat T cells (endogenous CXCR4). In kind it is binding, human. Conditions: 100 nM VUN400-HiBiT with competing ligand 2 h, washed, exogenous LgBiT added, p < 0.05. As for the experimental part: Nanobody displacement assays in T-cells were performed by seeding 100,000 Jurkat cells per well into V-bottom 96-well plates in 100μl warm HBSS. Cells were treated with 100 nM VUN400-HiBiT and competing ligands simultaneously and incubated for 2 hours at 37°C. The cells were pelleted by centrifugation at 300g for 5 minutes and the supernatant removed and replaced with 200 μl fresh HBSS. Cells were resuspended via shaking at 1000 r.p.m on an orbital plate shaker for 2 minutes. This wash step was repeated two more times to remove unbound VUN400-HiBiT. The cells were treated with 20 nM exogenous LgBiT and furimazine (1:400 final concentration) and transferred to white 96-well plates and luminescence read using a PHERAstar FS plate reader.
(The HiBiT peptide binds its large partner to form an active luciferase.)

Experiment [4] addresses T3, SNAP-CXCR4 (Homo sapiens, UniProt P61073). The experiment can be described thus: NanoBiT nanobody displacement binding assay, whole HEK293 cells expressing SNAP-CXCR4 (exogenous LgBiT added after washing). More on the design: expressed in transfected cells; host or cells: HEK293G cells stably expressing SNAP-CXCR4 (gift of Dr. J. Goulding, University of Nottingham). The procedure: as §1

Experiment [5] concerns the target T1, LgBiT-CXCR4. Description: NanoBRET saturation binding at complemented LgBiT-CXCR4 in HEK293 cells. Conditions: non-specific binding defined with 10 μM AMD3100, 2 h 37°C. As for the experimental part: Saturation NanoBRET binding assays were performed on HEK 293 cells stably expressing the LgBiT-CXCR4 receptor. Cells were plated at 30,000 cells/well in white 96-well plates (Greiner) previously coated with 50 μl poly-D-lysine (mol wt: 70-150 kDa; 10 μg/ml in PBS) in 100 μl complete media (DMEM with 10% FCS). After 24 hours, the media was removed from each well and replaced with 100 μl HEPES-buffered saline solution (HBSS; 145 mM NaCl, 5 mM KCl, 1.3 mM CaCl2, 1 mM MgSO4, 10 mM HEPES, 2 mM sodium pyruvate, 1.5 mM NaHCO3, 10 mM D-glucose, pH 7.45) containing 10 nM purified HiBiT-HaloTag (Promega) and incubated at 37°C for 30 minutes. This was sufficient time for HiBiT-LgBiT complementation to occur, forming the fully complemented NanoLuc enzyme. The HBSS was then aspirated and the cells washed three times with 100 μl HBSS. […] Cells were incubated for 2 hours at 37°C in the dark. The NanoLuc substrate furimazine (Promega) was added to each well (1:400 final concentration) and allowed to equilibrate for 5 minutes at 37°C prior to reading. Luminescence signals were measured at two wavelengths using a PHERAstar FS plate reader (BMG Labtech, UK) at room temperature. Filtered light was simultaneously measured using 460 nm (80-nm bandpass) and >610 nm longpass filters. The resulting BRET ratio was calculated by dividing the >610 nm emission by the 460 nm emission.
(Bioluminescence resonance energy transfer reports proximity on the nanometre scale.)

The target of experiment [6] is T1, LgBiT-CXCR4. Description: CXCL12-AF647 dissociation kinetics (NanoBRET) at complemented LgBiT-CXCR4. In kind it is binding. The procedure: Nanobody and CXCL12-AF647 dissociation kinetic measurements were performed in membranes isolated from HEK293 LgBiT-CXCR4 cells. Briefly, 10 μg LgBiT-CXCR4 membranes were plated in white 96-well plates containing furimazine (1:400 final concentration) and incubated at 37°C for 10 minutes. […] Increasing concentrations of VUN400-HiBiT or CXCL12-AF647 were added to the wells and luminescence (VUN400-HiBiT) or the BRET ratio (CXCL12-AF647) were measured. […] The BRET ratio was calculated as described above. Both the BRET ratio and luminescence were measured using the PHERAstar FS plate reader.
For nanobody dissociation experiments were fitted to the following mono-exponential decay equation: Y=(Y0−NS)^−k.t+NS where Y0 is the nanobody binding at the time of ligand addition (t0), NS is the nanobody bound at infinite time, and k is the rate constant of nanobody dissociation.

Experiment [7] deals with T3, SNAP-CXCR4. The experiment can be described thus: TR-FRET saturation ligand binding at SNAP-CXCR4. Also noted: expressed in transfected cells; host or cells: HEK293G cells stably expressing SNAP-CXCR4 (gift of Dr. J. Goulding, University of Nottingham). The source says:
Saturation binding of VUN400-HiBiT a t th e
experiment is representative of five separate experiments.
Supplementary Figure 2 (related to Figure 5).
This single experiment is representative of five separate experiments.
For orientation: In TR-FRET formats the signal depends on donor and acceptor labels being close together.

In experiment [8] the target is T3, SNAP-CXCR4. Conditions: 10 μM AMD3100 (Figure S1).
Description: Data are mean ± SEM from triplicate determinations in a single experiment. This single
Data are mean ± SEM from triplicate determinations in a single experiment.
Experiment [9] deals with T4, LgBiT-tagged human CXCR4 receptor ( | human, UniProt P61073 2-352, CXCR4 portion only (initiator Met removed (so in the source)); this part carries VUN400, CXCL12, AMD3100 and IT1t binding. Left out: the 5-HT3A signal sequence (presumed cleaved), the N-terminal LgBiT report).
T4 chain: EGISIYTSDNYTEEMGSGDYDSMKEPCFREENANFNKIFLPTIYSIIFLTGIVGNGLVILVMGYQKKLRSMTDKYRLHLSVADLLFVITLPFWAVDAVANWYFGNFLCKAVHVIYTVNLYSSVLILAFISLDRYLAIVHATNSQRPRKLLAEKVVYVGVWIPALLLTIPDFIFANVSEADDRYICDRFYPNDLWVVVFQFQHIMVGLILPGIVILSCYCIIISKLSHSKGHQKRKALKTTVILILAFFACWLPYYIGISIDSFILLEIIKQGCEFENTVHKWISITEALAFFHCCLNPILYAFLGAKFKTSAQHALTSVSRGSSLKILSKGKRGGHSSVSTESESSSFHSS
Description: split reporter (BiFC, NanoBiT); association kinetics; increasing concentrations of HiBiT added to HEK293 cells stably expressing LgBiT-CXCR4 in HBSS with furimazine; luminescence over 60 minutes at 37°C; global fit of kon and koff, KD = koff/kon. Conditions: one partner purified.

Where [10] appears, read: 20 nM VUN400-HiBiT, (a) pre-incubation with VUN400-HiBiT.
[11] abbreviates: 20 nM VUN400-HiBiT, (b) simultaneous addition.
Where [12] appears, read: 20 nM VUN400-HiBiT, (c) pre-incubation with ligands.
Where [13] appears, read: 20 nM VUN400-HiBiT, (b) simultaneous addition, 2 h 37°C.
The mark [14] stands for this setting: (c) pre-incubation with ligands 2 h 37°C, then 20 nM VUN400-HiBiT 30 min.
The mark [15] stands for this setting: inhibition of 20 nM VUN400-HiBiT binding, (a) pre-incubation with VUN400-HiBiT 30 min, then ligand 2 h 37°C.

Marks after values point to notes of the source that are not given here.

T3 sequence (P61073 whole entry): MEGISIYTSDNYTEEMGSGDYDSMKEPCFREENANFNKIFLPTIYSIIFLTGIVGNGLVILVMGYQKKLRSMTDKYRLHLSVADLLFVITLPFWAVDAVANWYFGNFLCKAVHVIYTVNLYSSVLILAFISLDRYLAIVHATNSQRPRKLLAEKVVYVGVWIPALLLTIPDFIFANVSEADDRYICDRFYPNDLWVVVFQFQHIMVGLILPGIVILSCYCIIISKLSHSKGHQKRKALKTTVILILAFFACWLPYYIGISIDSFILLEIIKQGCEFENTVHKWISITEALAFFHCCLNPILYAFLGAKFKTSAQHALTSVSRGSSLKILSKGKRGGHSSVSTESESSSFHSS

In the case of `CC1(C)CN2C(CSC(=NC3CCCCC3)NC3CCCCC3)=CSC2=N1.Cl.Cl` [IT1t, N,N’-Dicyclohexylcarbamimidothioic acid (5,6-dihydro-6,6-dimethylimidazo[2,1-b]thiazol-3-yl)methyl ester dihydrochloride], the “prevention of VUN400-HiBiT binding to LgBiT-CXCR4” value (“prevention of VUN400-HiBiT binding” below) at LgBiT-CXCR4 [1] is on record as “prevented”. The “Maximum Inhibition (% 10 μM AMD3100)” value at LgBiT-CXCR4 [2] (setting [10]) is 104.4 ± 4.5 % 10 μM AMD3100; at LgBiT-CXCR4 [2] (setting [11]), 96.5 ± 0.4 % 10 μM AMD3100; at LgBiT-CXCR4 [2] (setting [12]) it was 79.9 ± 3.1 ^c % 10 μM AMD3100; at SNAP-CXCR4 [4] (setting [10]), 107.1 ± 4.8 % 10 μM AMD3100; on SNAP-CXCR4 [4] (setting [11]), 106.8 ± 11.5 % 10 μM AMD3100; on SNAP-CXCR4 [4] (setting [12]), 102.3 ± 3.6 % 10 μM AMD3100. Further, in experiment [3], the “displacement of VUN400-HiBiT from endogenous CXCR4” value (“displacement of VUN400-HiBiT” below) was “displaced”.

As to “CXCL12: chemokine ligand, endogenous orthosteric agonist of CXCR4 (PeproTech)”, the “prevention of VUN400-HiBiT binding” value in the experiment with LgBiT-CXCR4 [1] was “prevented”. Besides, the “Maximum Inhibition (% 10 μM AMD3100)” value in the experiment with LgBiT-CXCR4 [2] (setting [10]) is reported as 98.2 ± 0.2 % 10 μM AMD3100; in the experiment with LgBiT-CXCR4 [2] (setting [11]), 98.8 ± 0.3 % 10 μM AMD3100; with LgBiT-CXCR4 [2] (setting [12]) it was 111.5 ± 3.1 ^c % 10 μM AMD3100; with SNAP-CXCR4 [4] (setting [10]), 93.3 ± 8.7 % 10 μM AMD3100; with SNAP-CXCR4 [4] (setting [11]), 92.8 ± 6.7 % 10 μM AMD3100; in the experiment with SNAP-CXCR4 [4] (setting [12]) it was 67.7 ± 11.6 ^c % 10 μM AMD3100. Also, the “pIC50 (Mean ± SEM)” value with LgBiT-CXCR4 [2] (setting [13]) is on record as 8.74 ± 0.13; in the experiment with LgBiT-CXCR4 [2] (setting [14]) it was 9.03 ± 0.02; in the experiment with LgBiT-CXCR4 [2] (setting [15]) it was 8.82 ± 0.12; with SNAP-CXCR4 [4] (setting [13]), 8.05 ± 0.21 ^a; in the experiment with SNAP-CXCR4 [4] (setting [14]), 8.05 ± 0.41; with SNAP-CXCR4 [4] (setting [15]), 8.14 ± 0.28 ^a. Further, the “displacement of VUN400-HiBiT” value in experiment [3] is “displaced”.

As for “CXCL12-AF647: fluorescently labeled CXCL12, fluorescent orthosteric agonist (Almac)”, the pKD (as a rule, the negative decadic logarithm of the KD, by convention in mol/L) with LgBiT-CXCR4 [5] was determined as 7.80 ± 0.08; with SNAP-CXCR4 [7] it was 7.99 ± 0.10. For the same molecule, the koff – broadly, a measure of how fast the partners let go of each other – with LgBiT-CXCR4 [6] (10 nM CXCL12-AF647, after addition of 1 μM CXCL12) worked out at 0.00533 ± 0.0005 s⁻¹; in the experiment with LgBiT-CXCR4 [6] (10 nM CXCL12-AF647, after addition of 10 μM AMD3100), 0.007 ± 0.00067 s⁻¹.

`c1cc(CN2CCCNCCNCCCNCC2)ccc1CN1CCCNCCNCCCNCC1` [AMD3100]: on LgBiT-CXCR4 [1], the “prevention of VUN400-HiBiT binding” value is listed as “prevented”. Further, the “Maximum Inhibition (% 10 μM AMD3100)” value at LgBiT-CXCR4 [2] (setting [10]), on LgBiT-CXCR4 [2] (setting [11]), at LgBiT-CXCR4 [2] (setting [12]), on SNAP-CXCR4 [4] (setting [10]), at SNAP-CXCR4 [4] (setting [11]) and on SNAP-CXCR4 [4] (setting [12]) was 100 % 10 μM AMD3100 throughout. Besides, in experiment [3], the “displacement of VUN400-HiBiT” value is given as “displaced”. Besides, the “effect on VUN400-HiBiT bioluminescence signal at SNAP-CXCR4” value on SNAP-CXCR4 [8] is given as “able to reduce the bioluminescence signals”.

B1: purified HiBiT-HaloTag fusion protein (peptide)
chain: VSGWRLFKKIS
notes: Fusion protein of circa 34 kDa; also called HiBiT-HaloTag control protein; source: bought: Promega (Cat# N3010)
Take B1: in experiment [9], the koff amounted to 0.00367 s⁻¹, the association rate constant (kon) (usually the rate constant with which the complex forms) worked out at 10000 M⁻¹ s⁻¹ and the negative logarithm of the KD (pKD) amounted to 6.43 ± 0.13.

(Values after publication PMC7573392, “Monitoring Allosteric Interactions with CXCR4 Using NanoBiT Conjugated Nanobodies” (Cell Chemical Biology, 2020).)
